Laboratory results taken from article PMC6783537, “Structural basis of the activation of type 1 insulin-like growth factor receptor” (Nature Communications, 2019).

Target: the molecule itself
Experiment: cryo-EM structure; purified MmIGF1R and HsIGF1 mixed at molar ratio 1:2, 1 h at 4 °C, complex purified by SEC in 20 mM Hepes-Na pH 7.4, 200 mM NaCl, 0.03% DDM; 4.3 Å

B1: full-length mouse IGF1R (MmIGF1R), residues 1–1262, Y951A, D1107N (receptor)
chain: not shown
notes: Mouse type 1 insulin-like growth factor receptor with C-terminal tail truncation and kinase dead mutation, residues 1–1262, Y951A, D1107N; Disulfide-linked covalent dimer of two protomers; it is written here as one chain per protomer; also called type 1 insulin-like growth factor receptor; not shown: Tsi3, C-terminal, cleaved
  stoichiometry N: 2
